Measured values as given in PMC7171142 (Scientific Reports, 2020).

B1: Recombinant Rh5 (E26-Q526), released from GST by TEV protease (domain or fragment)
chain: ENAIKKTKNQENNLTLLPIKSTEEEKDDIKNGKDIKKEIDNDKENIKTNNAKDHSTYIKSYLNTNVNDGLKYLFIPSHNSFIKKYSVFNQINDGMLLNEKNDVKNNEDYKNVDYKNVNFLQYHFKELSNYNIANSIDILQEKEGHLDFVIIPHYTFLDYYKHLSYNSIYHKSSTYGKCIAVDAFIKKINETYDKVKSKCNDIKNDLIATIKKLEHPYDINNKNDDSYRYDISEEIDDKSEETDDETEEVEDSIQDTDSNHTPSNKKKNDLMNRTFKKMMDEYNTKKKKLIKCIKNHENDFNKICMDMKNYGTNLFEQLSCYNNNFCNTNGIRYHYDEYIHKLILSVKSKNLNKDLSDMTNILQQSELLLTNLNKKMGSYIYIDTIKFIHKEMKHIFNRIEYHTKIINDKTKIIQDKIKLNIWRTFQKDELLKRILDMSNEYSLFITSDHLRQMLYNTFYSKEKHLNNIFHHLIYVLQMKFNDVPIKMEYFQTYKKNKPLTQ
B2: GST-fused recombinant SEMA7A (Q45-H666) with C-terminal His-tag (domain or fragment, human, UniProt O75326 45-666, looked up)
chain: QGHLRSGPRIFAVWKGHVGQDRVDFGQTEPHTVLFHEPGSSSVWVGGRGKVYLFDFPEGKNASVRTVNIGSTKGSCLDKRDCENYITLLERRSEGLLACGTNARHPSCWNLVNGTVVPLGEMRGYAPFSPDENSLVLFEGDEVYSTIRKQEYNGKIPRFRRIRGESELYTSDTVMQNPQFIKATIVHQDQAYDDKIYYFFREDNPDKNPEAPLNVSRVAQLCRGDQGGESSLSVSKWNTFLKAMLVCSDAATNKNFNRLQDVFLLPDPSGQWRDTRVYGVFSNPWNYSAVCVYSLGDIDKVFRTSSLKGYHSSLPNPRPGKCLPDQQPIPTETFQVADRHPEVAQRVEPMGPLKTPLFHSKYHYQKVAVHRMQASHGETFHVLYLTTDRGTIHKVVEPGEQEHSFAFNIMEIQPFRRAAAIQTMSLDAERRKLYVSSQWEVSQVPLDLCEVYGGGCHGCLMSRDPYCGWDQGRCISIYSSERSVLQSINPAEPHKECPNPKPDKAPLQKVSLAPNSRYYLSCPMESRHATYSWRHKENVEQSCEPGHQSPNCILFIENLTAQQYGHYFCEAQEGSYFREAQHWQLLPEDGIMAEHLLGHACALAASLWLGVLPTLTLGLLVH
B3: GST-fused recombinant CyRPA (N27-E362) with C-terminal His-tag (domain or fragment)
chain: NCDSRHVFIRTELSFIKNNVPCIRDMFFIYKRELYNICLDDLKGEEDETHIYVQKKVKDSWITLNDLFKETDLTGRPHIFAYVDVEEIIILLCEDEEFSNRKKDMTCHRFYSNDGKEYNNSEITISDYILKDKLLSSYVSLPLKIENREYFLICGVSPYKFKDDNKKDDILCMASHDKGETWGTKIVIKYDNYKLGVQYFFLRPYISKNDLSFHFYVGDNINNVKNVNFIECTHEKDLEFVCSNRDFLKDNKVLQDVSTLNDEYIVSYGNDNNFAECYIFFNNENSILIKPEKYGNTTAGCYGGTFVKIDENRTLFIYSSSQGIYNIHTIYYANYE
B4: GST-fused recombinant AMIGO2 (M1-N397) with C-terminal His-tag (domain or fragment, human, UniProt Q86SJ2 1-397, looked up)
chain: MSLRVHTLPTLLGAVVRPGCRELLCLLMITVTVGPGASGVCPTACICATDIVSCTNKNLSKVPGNLFRLIKRLDLSYNRIGLLDSEWIPVSFAKLNTLILRHNNITSISTGSFSTTPNLKCLDLSSNKLKTVKNAVFQELKVLEVLLLYNNHISYLDPSAFGGLSQLQKLYLSGNFLTQFPMDLYVGRFKLAELMFLDVSYNRIPSMPMHHINLVPGKQLRGIYLHGNPFVCDCSLYSLLVFWYRRHFSSVMDFKNDYTCRLWSDSRHSRQVLLLQDSFMNCSDSIINGSFRALGFIHEAQVGERLMVHCDSKTGNANTDFIWVGPDNRLLEPDKEMENFYVFHNGSLVIESPRFEDAGVYSCIAMNKQRLLNETVDVTINVSNFTVSRSHAHEAFN

Columns and labels:
[1] = target: Recombinant Ecto-PfRipr (D21-N1086), C-terminal His-tag (P. falciparum 3D7) (UniProt O97302); assay: SPR; single-cycle kinetics, Biacore X100; recombinant PfRipr immobilised on a CM5 chip as ligand; analytes at 3.13, 6.25, 12.5, 25 and 50 nM, contact time 120 s, dissociation 180 s, last dissociation 3000 s
[2] = target: T1, Recombinant Ecto-PfRipr (D21-N1086), C-terminal His-tag (P. falciparum 3D7, UniProt O97302 21-1086); assay: as above; conditions: both partners purified
[3] = target: T1, Recombinant Ecto-PfRipr (D21-N1086), …; assay: SPR; single-cycle kinetics, Biacore X100; […], dissociation 180 s, […]; conditions: both partners purified

Sequence of Recombinant Ecto-PfRipr (D21-N1086), C-terminal His-tag (P. falciparum 3D7) (O97302 21-1086): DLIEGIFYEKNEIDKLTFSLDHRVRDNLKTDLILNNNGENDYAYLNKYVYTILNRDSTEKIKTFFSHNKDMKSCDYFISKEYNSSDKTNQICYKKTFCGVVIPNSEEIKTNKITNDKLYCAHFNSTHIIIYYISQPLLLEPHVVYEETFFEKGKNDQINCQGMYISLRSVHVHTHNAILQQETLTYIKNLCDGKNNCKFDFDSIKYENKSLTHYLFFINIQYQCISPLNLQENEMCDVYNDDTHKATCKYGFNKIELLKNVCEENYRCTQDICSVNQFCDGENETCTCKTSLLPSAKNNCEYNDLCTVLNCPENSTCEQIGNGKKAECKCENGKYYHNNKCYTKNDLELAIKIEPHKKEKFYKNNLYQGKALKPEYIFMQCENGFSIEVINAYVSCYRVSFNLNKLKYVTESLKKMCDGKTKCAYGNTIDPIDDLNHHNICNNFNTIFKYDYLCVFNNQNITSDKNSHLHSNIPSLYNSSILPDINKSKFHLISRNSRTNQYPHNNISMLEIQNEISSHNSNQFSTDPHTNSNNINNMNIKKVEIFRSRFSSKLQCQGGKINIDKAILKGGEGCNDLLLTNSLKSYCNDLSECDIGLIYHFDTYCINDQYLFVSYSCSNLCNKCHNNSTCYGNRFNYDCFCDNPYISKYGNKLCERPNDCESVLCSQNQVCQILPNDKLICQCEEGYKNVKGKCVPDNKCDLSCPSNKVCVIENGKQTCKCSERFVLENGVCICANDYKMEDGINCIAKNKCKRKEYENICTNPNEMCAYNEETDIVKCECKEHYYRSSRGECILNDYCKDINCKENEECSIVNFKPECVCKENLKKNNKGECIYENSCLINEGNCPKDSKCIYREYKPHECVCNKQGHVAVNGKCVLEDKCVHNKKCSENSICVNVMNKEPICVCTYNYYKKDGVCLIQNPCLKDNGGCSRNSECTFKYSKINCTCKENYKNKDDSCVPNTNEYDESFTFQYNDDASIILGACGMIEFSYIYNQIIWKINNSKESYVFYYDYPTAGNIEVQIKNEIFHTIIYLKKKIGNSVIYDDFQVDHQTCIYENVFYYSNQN
T1 sequence (O97302 21-1086): as above

| Molecule | Kd [2] [pM] | koff [2] [s⁻¹] | kon [2] [M⁻¹ s⁻¹] | other results |
| --- | --- | --- | --- | --- |
| GST-fused recombinant NPTN (Q29-L221) with C-terminal His-tag (domain or fragment) | – | – | – | Kd [1]: 24000 pM; koff [1]: 6.5e-05 s⁻¹; kon [1]: 2700 M⁻¹ s⁻¹ |
| B1 | 480 | 2.9e-05 | 61000 | – |
| B2 | 940 | 4.1e-05 | 44000 | – |
| B3 | – | – | – | Kd [3]: 69000 pM; koff [3]: 0.00016 s⁻¹; kon [3]: 2400 M⁻¹ s⁻¹ |
| B4 | 160 | 2e-05 | 120000 | – |
